For one test, the target named is T1, 重组人CD318-avi-his抗原蛋白 (human, UniProt Q9H5V8 30-667).
T1 construct: Coated on ELISA plates at 100 ng per well; also called 重组人CD318蛋白; CDCP1
T1 sequence: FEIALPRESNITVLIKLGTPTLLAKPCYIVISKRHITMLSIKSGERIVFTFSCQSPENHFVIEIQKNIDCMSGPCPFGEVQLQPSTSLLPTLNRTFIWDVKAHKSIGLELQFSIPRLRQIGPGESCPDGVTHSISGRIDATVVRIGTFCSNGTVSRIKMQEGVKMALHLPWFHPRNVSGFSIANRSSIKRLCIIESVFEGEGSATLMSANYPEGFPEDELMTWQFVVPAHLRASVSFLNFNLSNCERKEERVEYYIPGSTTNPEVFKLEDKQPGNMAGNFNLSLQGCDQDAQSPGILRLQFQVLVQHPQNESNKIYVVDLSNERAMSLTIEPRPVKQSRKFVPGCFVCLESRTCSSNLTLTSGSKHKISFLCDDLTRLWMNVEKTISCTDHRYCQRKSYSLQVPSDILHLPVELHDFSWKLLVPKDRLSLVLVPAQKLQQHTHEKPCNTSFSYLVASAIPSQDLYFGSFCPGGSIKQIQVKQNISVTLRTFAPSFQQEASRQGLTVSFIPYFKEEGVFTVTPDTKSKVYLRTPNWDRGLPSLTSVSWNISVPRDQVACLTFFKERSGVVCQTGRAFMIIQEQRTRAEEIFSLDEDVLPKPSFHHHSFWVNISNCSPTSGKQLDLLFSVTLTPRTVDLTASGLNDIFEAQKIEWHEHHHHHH
The experiment in a line: ELISA, coated recombinant human CD318, periplasmic extract, anti-HA HRP.

A further test has as its target T2, 生物素化的CD318蛋白 (human, UniProt Q9H5V8 30-667, biotin on the avi-tag).
T2 construct: Used 1:200 to stain CAR-T cells; also called 生物素-标记的CD318抗原; biotinylated recombinant human CD318-avi-his
T2 sequence: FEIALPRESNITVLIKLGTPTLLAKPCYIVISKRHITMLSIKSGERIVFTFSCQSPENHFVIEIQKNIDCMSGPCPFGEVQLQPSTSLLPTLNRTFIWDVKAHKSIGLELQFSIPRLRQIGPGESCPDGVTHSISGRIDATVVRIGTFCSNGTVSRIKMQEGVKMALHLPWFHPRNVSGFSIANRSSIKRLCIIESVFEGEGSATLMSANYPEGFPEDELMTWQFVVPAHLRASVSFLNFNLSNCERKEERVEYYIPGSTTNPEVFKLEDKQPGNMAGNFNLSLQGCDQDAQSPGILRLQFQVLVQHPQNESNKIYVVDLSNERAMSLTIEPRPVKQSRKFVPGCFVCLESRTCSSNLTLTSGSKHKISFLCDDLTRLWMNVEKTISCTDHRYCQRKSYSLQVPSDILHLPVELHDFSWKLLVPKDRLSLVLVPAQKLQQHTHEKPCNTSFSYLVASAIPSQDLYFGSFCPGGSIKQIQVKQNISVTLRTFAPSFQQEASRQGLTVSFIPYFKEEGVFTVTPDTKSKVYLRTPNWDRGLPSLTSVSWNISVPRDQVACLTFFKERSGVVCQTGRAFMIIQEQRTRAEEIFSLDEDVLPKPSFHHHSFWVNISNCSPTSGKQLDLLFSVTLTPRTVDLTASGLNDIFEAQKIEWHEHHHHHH
Description: flow cytometry, CAR-T cells stained with biotinylated CD318 antigen and PE-streptavidin. (In general: A flow cytometer gives signals particle by particle.)

B1: 4A10 (VHH)
VHH: EVQVVESGGGLVQAGGSLRLSCVASGSNDSMTAMGWYRQAPGKQREMVAVSTSTGTAIYGDSMKGRFTIARDNAKNTVYLQMNSLNFEDTAVYYCRNFIRGRDYWGQGTQVTVSS
notes: Tested as a periplasmic extract from TG1 (pcomb3X phagemid) and detected with anti-HA HRP; also called CD318 VHH 4A10
Take B1: the binding result with 重组人CD318-avi-his抗原蛋白 is given as “binds”.

B2: 4B2 (VHH)
VHH: EVQVVESGGGLVQAGGSLRLSCVASGSSDSMNAMGWYRQAPGKQRETVAVSTSVGTAIYGDSVKGRFTISRDNAKNTVYLQMNSLNFEDTAVYYCRIFSRGRDYWGQGTQVTVSS
notes: Tested as a periplasmic extract from TG1 (pcomb3X phagemid) and detected with anti-HA HRP; also called CD318 VHH 4B2
Turning to B2, in the test with 重组人CD318-avi-his抗原蛋白, the binding result was “binds”.

B3: 4A10-BBz (other)
chain: EVQVVESGGGLVQAGGSLRLSCVASGSNDSMTAMGWYRQAPGKQREMVAVSTSTGTAIYGDSMKGRFTIARDNAKNTVYLQMNSLNFEDTAVYYCRNFIRGRDYWGQGTQVTVSSTTTPAPRPPTPAPTIASQPLSLRPEACRPAAGGAVHTRGLDFACDIYIWAPLAGTCGVLLLSLVITLYCRFSVVKRGRKKLLYIFKQPFMRPVQTTQEEDGCSCRFPEEEEGGCELRVKFSRSADAPAYQQGQNQLYNELNLGRREEYDVLDKRRGRDPEMGGKPRRKNPQEGLYNELQKDKMAEAYSEIGMKGERRRGKGHDGLYQGLSTATKDTYDALHMQALPPR
notes: Chimeric antigen receptor: CD8 signal peptide, VHH, CD8a hinge, CD8a transmembrane, 4-1BB, CD3zeta; also called 4A10 CD318 CAR
For B3, the binding result with 生物素化的CD318蛋白 is given as “binds”.

B4: 4A4 (VHH)
VHH: QVQLVESGGGLVQAGGSLRLSCAASGSIFSGSAMGWYRQAPGKQRELVVVESSGGSTNYADSVKGRFTISRDNAKNTVYLQMNSLKPEDTAVYYCRGFYYGMGYWGKGTQVTVSS
notes: Tested as a periplasmic extract from TG1 (pcomb3X phagemid) and detected with anti-HA HRP; also called CD318 VHH 4A4
Turning to B4, the binding result in the test with 重组人CD318-avi-his抗原蛋白 is recorded as “binds”.

B5: 4B7 (VHH)
VHH: EVQLVETGGGLVQPGGSLRLSCAASGFTLDYYAIGWFRQAPGKEREGVSCITSSDDNTYYADSVKGRFTISRDNAKNTVYLQMNSLKPEDTAVYYCATDALSIRRSSCQLGPTAYFGMDYWGKGTLVTVSS
notes: Tested as a periplasmic extract from TG1 (pcomb3X phagemid) and detected with anti-HA HRP; also called CD318 VHH 4B7
As to B5, the binding result in the test with 重组人CD318-avi-his抗原蛋白 is “binds”.

B6: 4G2 (VHH)
VHH: QVQLVESGGGLVQAGGSLRLSCAAFGNKYDFNTMGWYRQGPGKQRELVATIAAGGRTNYADSAKGRFTISRDNAKNTVYLQMNSLKPEDTAVYYCSAERVKNHYADYALDDYWGQGIQVTVSS
notes: Tested as a periplasmic extract from TG1 (pcomb3X phagemid) and detected with anti-HA HRP; also called CD318 VHH 4G2
On to B6, for which, in the test with 重组人CD318-avi-his抗原蛋白, the binding result is reported as “binds”.

B7: 4A8 (VHH)
VHH: EVQLVESGGGLVQPGGSLRLSCAASGFTSDYYAIGWFRQAPGKEREGVSCINNSDGSTYYADSVKGRFTISRDNAKNTVYLQMNSLKPEDTAVYYCAADDDVVAGFSCASYRYLELWGQGTLVTVSS
notes: Tested as a periplasmic extract from TG1 (pcomb3X phagemid) and detected with anti-HA HRP; also called CD318 VHH 4A8
Turning to B7, the binding result with 重组人CD318-avi-his抗原蛋白 is on record as “binds”.

B8: 4A8-BBz (other)
chain: EVQLVESGGGLVQPGGSLRLSCAASGFTSDYYAIGWFRQAPGKEREGVSCINNSDGSTYYADSVKGRFTISRDNAKNTVYLQMNSLKPEDTAVYYCAADDDVVAGFSCASYRYLELWGQGTLVTVSSTTTPAPRPPTPAPTIASQPLSLRPEACRPAAGGAVHTRGLDFACDIYIWAPLAGTCGVLLLSLVITLYCRFSVVKRGRKKLLYIFKQPFMRPVQTTQEEDGCSCRFPEEEEGGCELRVKFSRSADAPAYQQGQNQLYNELNLGRREEYDVLDKRRGRDPEMGGKPRRKNPQEGLYNELQKDKMAEAYSEIGMKGERRRGKGHDGLYQGLSTATKDTYDALHMQALPPR
notes: Chimeric antigen receptor: CD8 signal peptide, VHH, CD8a hinge, CD8a transmembrane, 4-1BB, CD3zeta; also called 4A8 CD318 CAR
In the case of B8, the binding result with 生物素化的CD318蛋白 was “binds”.

These data come from patent CN117264055A (SHANGHAI HRAIN BIOTECHNOLOGY CO LTD, dated 2023).
